Experiments:
Experiment in all cases: crystal structure
Settings in all cases: both partners purified
[1] = target: TBEV^Si EDIII (envelope domain III of tick-borne encephalitis virus, Siberian subtype, strain Vasilchenko), … (Tick-borne encephalitis virus Siberian …, UniProt Q9WBS4, strain)
[2] = target: TBEV^FE EDIII-His-Avitag (envelope domain III of tick-borne encephalitis virus, Far Eastern subtype, strain … (Tick-borne encephalitis virus Far …, UniProt P07720, strain))
[3] = target: TBEV^WE EDIII-His-Avitag (envelope domain III of tick-borne encephalitis virus, Western European subtype, … (Tick-borne encephalitis virus Western …, UniProt P14336))

Measured: binding result

B1: T025 Fab (antigen-binding fragment of human antibody T025, IGVH3–30/IGVK3–15) (Fab, V domains shown)
VH: QVQLVESGGGVVQPGRSLRLSCAASGFTFSNYGMHWVRQAPGKGLDWVAVISYDAISKSYADSVEGRFTISRDNSKNTLYLQMNSLRAEDSAVYYCAKSPTAIDPPFDYWGQGTLVTVSS
VL: EIVMTQSPATLSVSPGERATLSCWASQSVSSNLAWYQQKPGQAPRLLIYGASTRATGIPARFSASGSGTEFTLTISSLQSEDFAVYYCQQYNNWPPRFGQGTKVEIK
notes: not shown: 6XHis, C-terminal, kept
binds: all assays above

From PMC8040517 (The Journal of Experimental Medicine, 2021)
